Assay results from patent US20210388110A1 (published 2021).

Molecular target: T1, soluble human CD3ε chain (human, UniProt P07766 23-126, limits assumed)
T1 construct: the text says soluble human CD3ε chain; also called human CD3 epsilon chain
Assay: SPR (Biacore)

T1 sequence (P07766 23-126 limits assumed): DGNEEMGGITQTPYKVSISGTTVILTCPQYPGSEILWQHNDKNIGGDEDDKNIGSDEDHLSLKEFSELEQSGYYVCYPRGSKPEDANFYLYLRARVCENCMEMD

| Binder | Kd |
| --- | --- |
| TR01H046-E22Hh/none-Hi-Kn010G3/L0000-k0 (antibody, human IgG1, kappa, L234A L235A, N297A, single-arm) heavy: QVQLVESGGGLVQPGRSLRLSCSASGFTFSNAWMHWVRQAPGKGLEWVAQIKDKSQNYATYYAESVKGRFTISRADSKNSIYLQMNSLKTEDTAVYYCRYVHYSASYGVDYWGQGTTVTVSSASTKGPSVFPLAPSSKSTSGGTAALGCLVKDYFPEPVTVSWNSGALTSGVHTFPAVLQSSGLYSLSSVVTVPSSSLGTQTYICNVNHKPSNTKVDKKVEPKSCDKTHTCPPCPAPEAAGGPSVFLFPPKPKDTLMISRTPEVTCVVVDVSHEDPEVKFNWYVDGVEVHNAKTKPREEQYASTYRVVSVLTVLHQDWLNGKEYKCKVSNKALPAPIEKTISKAKGQPREPQVYTLPPSRCELTKNQVSLSCAVKGFYPSDIAVEWESNGQPENNYKTTPPVLDSDGSFFLVSKLTVDKSRWQQGNVFSCSVMHEALHNHYTQKSLSLSPDYKDDDDK EPKSSDKTHTCPPCPAPELLGGPSVFLFPPKPKDTLMISRTPEVTCVVVDVSHEDPEVKFNWYVDGVEVHNAKTKPREEQYNSTYRVVSVLTVLHQDWLNGKEYKCKVSNKALPAPIEKTISKAKGQPREPQVCTLPPSRDELTKNQVSLWCLVKGFYPSDIAVEWESNGQPENNYKTTPPVLDSDGSFFLYSKLTVDKSRWQQGNVFSCSVMHEALHNRYTQKSLSLSP light: DIVMTQSPLSLPVTPGEPASISCRSSQSLVHSNRNTYLHWYQQKPGQAPRLLIYKVSNRFSGVPDRFSGSGSGTDFTLKISRVEAEDVGVYYCGQGTQVPYTFGQGTKLEIKRTVAAPSVFIFPPSDEQLKSGTASVVCLLNNFYPREAKVQWKVDNALQSGNSQESVTEQDSKDSTYSLSSTLTLSKADYEKHKVYACEVTHQGLSSPVTKSFNRGEC | 42.3 nM |
| TR01H049-E22Hh/none-Hi-Kn010G3/L0000-k0 (antibody, human IgG1, kappa, L234A L235A, N297A, single-arm) heavy: QVQLVESGGGLVQPGRSLRLSCAASGFTFSNAWMHWVRQAPGKGLEWVAQIKDKSQNYATYYAESVKGRFTISRDDSKNSIYLQMNSLKTEDTAVYYCRYVHYSASYGVDAWGQGTTVTVSSASTKGPSVFPLAPSSKSTSGGTAALGCLVKDYFPEPVTVSWNSGALTSGVHTFPAVLQSSGLYSLSSVVTVPSSSLGTQTYICNVNHKPSNTKVDKKVEPKSCDKTHTCPPCPAPEAAGGPSVFLFPPKPKDTLMISRTPEVTCVVVDVSHEDPEVKFNWYVDGVEVHNAKTKPREEQYASTYRVVSVLTVLHQDWLNGKEYKCKVSNKALPAPIEKTISKAKGQPREPQVYTLPPSRCELTKNQVSLSCAVKGFYPSDIAVEWESNGQPENNYKTTPPVLDSDGSFFLVSKLTVDKSRWQQGNVFSCSVMHEALHNHYTQKSLSLSPDYKDDDDK EPKSSDKTHTCPPCPAPELLGGPSVFLFPPKPKDTLMISRTPEVTCVVVDVSHEDPEVKFNWYVDGVEVHNAKTKPREEQYNSTYRVVSVLTVLHQDWLNGKEYKCKVSNKALPAPIEKTISKAKGQPREPQVCTLPPSRDELTKNQVSLWCLVKGFYPSDIAVEWESNGQPENNYKTTPPVLDSDGSFFLYSKLTVDKSRWQQGNVFSCSVMHEALHNRYTQKSLSLSP light: DIVMTQSPLSLPVTPGEPASISCRSSQSLVHSNRNTYLHWYQQKPGQAPRLLIYKVSNRFSGVPDRFSGSGSGTDFTLKISRVEAEDVGVYYCGQGTQVPYTFGQGTKLEIKRTVAAPSVFIFPPSDEQLKSGTASVVCLLNNFYPREAKVQWKVDNALQSGNSQESVTEQDSKDSTYSLSSTLTLSKADYEKHKVYACEVTHQGLSSPVTKSFNRGEC | 67.9 nM |
| TR01H050-E22Hh/none-Hi-Kn010G3/L0000-k0 (antibody, human IgG1, kappa, L234A L235A, N297A, single-arm) heavy: QVQLVESGGGLVQPGRSLRLSCAASGFTFSNAWMHWVRQAPGKGLEWVAQIKDKSQNYATYYAESVKGRFTISRDDSKNSIYLQMNSLKTEDTAVYYCRYVHYSASYGVDYWGQGTTVTVSSASTKGPSVFPLAPSSKSTSGGTAALGCLVKDYFPEPVTVSWNSGALTSGVHTFPAVLQSSGLYSLSSVVTVPSSSLGTQTYICNVNHKPSNTKVDKKVEPKSCDKTHTCPPCPAPEAAGGPSVFLFPPKPKDTLMISRTPEVTCVVVDVSHEDPEVKFNWYVDGVEVHNAKTKPREEQYASTYRVVSVLTVLHQDWLNGKEYKCKVSNKALPAPIEKTISKAKGQPREPQVYTLPPSRCELTKNQVSLSCAVKGFYPSDIAVEWESNGQPENNYKTTPPVLDSDGSFFLVSKLTVDKSRWQQGNVFSCSVMHEALHNHYTQKSLSLSPDYKDDDDK EPKSSDKTHTCPPCPAPELLGGPSVFLFPPKPKDTLMISRTPEVTCVVVDVSHEDPEVKFNWYVDGVEVHNAKTKPREEQYNSTYRVVSVLTVLHQDWLNGKEYKCKVSNKALPAPIEKTISKAKGQPREPQVCTLPPSRDELTKNQVSLWCLVKGFYPSDIAVEWESNGQPENNYKTTPPVLDSDGSFFLYSKLTVDKSRWQQGNVFSCSVMHEALHNRYTQKSLSLSP light: DIVMTQSPLSLPVTPGEPASISCRSSQSLVHSNRNTYLHWYQQKPGQAPRLLIYKVSNRFSGVPDRFSGSGSGTDFTLKISRVEAEDVGVYYCGQGTQVPYTFGQGTKLEIKRTVAAPSVFIFPPSDEQLKSGTASVVCLLNNFYPREAKVQWKVDNALQSGNSQESVTEQDSKDSTYSLSSTLTLSKADYEKHKVYACEVTHQGLSSPVTKSFNRGEC | 57.6 nM |
| TR01H047-E22Hh/none-Hi-Kn010G3/L0000-k0 (antibody, human IgG1, kappa, L234A L235A, N297A, single-arm) heavy: QVQLVESGGGLVQPGRSLRLSCAASGFTFSNAWMHWVRQAPGKGLEWVAQIKDKSNNYATYYAESVKGRFTISRDDSKNSIYLQMNSLKTEDTAVYYCRYVHYSASYGVDIWGQGTTVTVSSASTKGPSVFPLAPSSKSTSGGTAALGCLVKDYFPEPVTVSWNSGALTSGVHTFPAVLQSSGLYSLSSVVTVPSSSLGTQTYICNVNHKPSNTKVDKKVEPKSCDKTHTCPPCPAPEAAGGPSVFLFPPKPKDTLMISRTPEVTCVVVDVSHEDPEVKFNWYVDGVEVHNAKTKPREEQYASTYRVVSVLTVLHQDWLNGKEYKCKVSNKALPAPIEKTISKAKGQPREPQVYTLPPSRCELTKNQVSLSCAVKGFYPSDIAVEWESNGQPENNYKTTPPVLDSDGSFFLVSKLTVDKSRWQQGNVFSCSVMHEALHNHYTQKSLSLSPDYKDDDDK EPKSSDKTHTCPPCPAPELLGGPSVFLFPPKPKDTLMISRTPEVTCVVVDVSHEDPEVKFNWYVDGVEVHNAKTKPREEQYNSTYRVVSVLTVLHQDWLNGKEYKCKVSNKALPAPIEKTISKAKGQPREPQVCTLPPSRDELTKNQVSLWCLVKGFYPSDIAVEWESNGQPENNYKTTPPVLDSDGSFFLYSKLTVDKSRWQQGNVFSCSVMHEALHNRYTQKSLSLSP light: DIVMTQSPLSLPVTPGEPASISCRSSQSLVHSNRNTYLHWYQQKPGQAPRLLIYKVSNRFSGVPDRFSGSGSGTDFTLKISRVEAEDVGVYYCGQGTQVPYTFGQGTKLEIKRTVAAPSVFIFPPSDEQLKSGTASVVCLLNNFYPREAKVQWKVDNALQSGNSQESVTEQDSKDSTYSLSSTLTLSKADYEKHKVYACEVTHQGLSSPVTKSFNRGEC | 20.4 nM |

Continued by falling Kd, values first:

| Kd | Binder |
| --- | --- |
| 45.2 nM | TR01H048-E22Hh/none-Hi-Kn010G3/L0000-k0 (antibody, human IgG1, kappa, L234A L235A, N297A, single-arm) heavy: QVQLVESGGGLVQPGRSLRLSCAASGFTFSNAWMHWVRQAPGKGLEWVAQIKDKSQNYATYYAESVKGRFTISRDDSKNSIYLQMNSLKTEDTAVYYCRYVHYSASYGVDIWGQGTTVTVSSASTKGPSVFPLAPSSKSTSGGTAALGCLVKDYFPEPVTVSWNSGALTSGVHTFPAVLQSSGLYSLSSVVTVPSSSLGTQTYICNVNHKPSNTKVDKKVEPKSCDKTHTCPPCPAPEAAGGPSVFLFPPKPKDTLMISRTPEVTCVVVDVSHEDPEVKFNWYVDGVEVHNAKTKPREEQYASTYRVVSVLTVLHQDWLNGKEYKCKVSNKALPAPIEKTISKAKGQPREPQVYTLPPSRCELTKNQVSLSCAVKGFYPSDIAVEWESNGQPENNYKTTPPVLDSDGSFFLVSKLTVDKSRWQQGNVFSCSVMHEALHNHYTQKSLSLSPDYKDDDDK EPKSSDKTHTCPPCPAPELLGGPSVFLFPPKPKDTLMISRTPEVTCVVVDVSHEDPEVKFNWYVDGVEVHNAKTKPREEQYNSTYRVVSVLTVLHQDWLNGKEYKCKVSNKALPAPIEKTISKAKGQPREPQVCTLPPSRDELTKNQVSLWCLVKGFYPSDIAVEWESNGQPENNYKTTPPVLDSDGSFFLYSKLTVDKSRWQQGNVFSCSVMHEALHNRYTQKSLSLSP light: DIVMTQSPLSLPVTPGEPASISCRSSQSLVHSNRNTYLHWYQQKPGQAPRLLIYKVSNRFSGVPDRFSGSGSGTDFTLKISRVEAEDVGVYYCGQGTQVPYTFGQGTKLEIKRTVAAPSVFIFPPSDEQLKSGTASVVCLLNNFYPREAKVQWKVDNALQSGNSQESVTEQDSKDSTYSLSSTLTLSKADYEKHKVYACEVTHQGLSSPVTKSFNRGEC |
| 29.1 nM | TR01H051-E22Hh/none-Hi-Kn010G3/L0000-k0 (antibody, human IgG1, kappa, L234A L235A, N297A, single-arm) heavy: QVQLVESGGGLVQPGRSLRLSCAASGFTFSNAWMHWVRQAPGKGLEWVAQIKDKSNNYATYYAESVKGRFTISRADSKNSLYLQMNSLKTEDTAVYYCRYVHYSASYGVDIWGQGTTVTVSSASTKGPSVFPLAPSSKSTSGGTAALGCLVKDYFPEPVTVSWNSGALTSGVHTFPAVLQSSGLYSLSSVVTVPSSSLGTQTYICNVNHKPSNTKVDKKVEPKSCDKTHTCPPCPAPEAAGGPSVFLFPPKPKDTLMISRTPEVTCVVVDVSHEDPEVKFNWYVDGVEVHNAKTKPREEQYASTYRVVSVLTVLHQDWLNGKEYKCKVSNKALPAPIEKTISKAKGQPREPQVYTLPPSRCELTKNQVSLSCAVKGFYPSDIAVEWESNGQPENNYKTTPPVLDSDGSFFLVSKLTVDKSRWQQGNVFSCSVMHEALHNHYTQKSLSLSPDYKDDDDK EPKSSDKTHTCPPCPAPELLGGPSVFLFPPKPKDTLMISRTPEVTCVVVDVSHEDPEVKFNWYVDGVEVHNAKTKPREEQYNSTYRVVSVLTVLHQDWLNGKEYKCKVSNKALPAPIEKTISKAKGQPREPQVCTLPPSRDELTKNQVSLWCLVKGFYPSDIAVEWESNGQPENNYKTTPPVLDSDGSFFLYSKLTVDKSRWQQGNVFSCSVMHEALHNRYTQKSLSLSP light: DIVMTQSPLSLPVTPGEPASISCRSSQSLVHSNRNTYLHWYQQKPGQAPRLLIYKVSNRFSGVPDRFSGSGSGTDFTLKISRVEAEDVGVYYCGQGTQVPYTFGQGTKLEIKRTVAAPSVFIFPPSDEQLKSGTASVVCLLNNFYPREAKVQWKVDNALQSGNSQESVTEQDSKDSTYSLSSTLTLSKADYEKHKVYACEVTHQGLSSPVTKSFNRGEC |
